These are literature values, as cited in article PMC6962051.

This data set has as its target linear di-ubiquitin (Homo sapiens) (UniProt P0CG47). Put plainly: isothermal titration calorimetry. (In general: ITC needs no label: the signal is the heat of the interaction.)

Sequence of NEMO CoZi (Q9Y6K9 258-350): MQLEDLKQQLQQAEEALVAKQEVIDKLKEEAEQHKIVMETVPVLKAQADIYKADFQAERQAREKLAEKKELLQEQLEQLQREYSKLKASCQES

NEMO CoZi (from UniProt Q9Y6K9): the Kd was 2400 nM.

What is called Kd is the free concentration of one partner at which half of the binding sites on the other are occupied at equilibrium, for simple one-to-one binding.
